Assays:
Assay in all cases: cell-based or functional assay
[1] = molecular target: BMP-7 R48Q/E60K/Y65N (human) (UniProt P18075)
BMP-7 Y78H (human) = BMP-7 Y78H (human) (UniProt P18075)
BMP-6 (human) = BMP-6 (human) (UniProt P22004)
BMP-7 E60K (human) = BMP-7 E60K (human) (UniProt P18075)
[2] = molecular target: Rev K60E (revertant of 80-1) (human) (UniProt P18075)
BMP-7 (human) = BMP-7 (human) (UniProt P18075)

Sequence of UniProt P22004 (P22004 375-513): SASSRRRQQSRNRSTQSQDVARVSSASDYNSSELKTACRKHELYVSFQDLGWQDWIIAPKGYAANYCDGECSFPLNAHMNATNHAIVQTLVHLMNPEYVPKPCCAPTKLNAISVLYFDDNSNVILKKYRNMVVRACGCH

B1: Noggin (protein, UniProt Q13253 28-232, looked up)
chain: QHYLHIRPAPSDNLPLVDLIEHPDPIFDPKEKDLNETLLRSLLGGHYDPGFMATSPPEDRPGGGGGAAGGAEDLAELDQLLRQRPSGAMPSEIKGLEFSEGLAQGKKQRLSKKLRRKLQMWLWSQTFCPVLYAWNDLGSRFWPRYVKVGSCFSKRSCSVPEGMVCKPSKSVHLTVLRWRCQRRGGQRCGWIPIQYPIISECKCSC
- relative activity at 1000 ng/ml of noggin, reporter gene assay, conditioned media [1]: 63%
- relative activity at 1000 ng/ml of noggin, reporter gene assay, conditioned media (BMP-7 Y78H (human)): 31%
- BMP-induced ID-1 gene expression by QPCR in hMSCs, BMP 50 ng/ml, Noggin 1.5 ug/ml, level against background (times background) (BMP-6 (human)): 2
- maximum percent inhibition by Noggin of BMP-induced luciferase activity, A549-BRE cells, BMP 150 ng/ml (BMP-6 (human)): 25%
- relative activity at 1000 ng/ml of noggin, reporter gene assay, conditioned media (BMP-6 (human)): 73%
- relative activity at 1000 ng/ml of noggin, reporter gene assay, conditioned media (BMP-7 E60K (human)): 53%
- relative activity in the presence of noggin at 100 ng/ml (N1), reporter gene assay [2]: 86%
- relative activity in the presence of noggin at 500 ng/ml (N2), reporter gene assay [2]: 51%
- relative activity in the presence of noggin at 1000 ng/ml (N3), reporter gene assay [2]: 32%
- relative activity at 1000 ng/ml of noggin, reporter gene assay, conditioned media (BMP-7 (human)): 15%

Source: patent publication US20110039773A1
